Data from the Immune Epitope Database (IEDB).

Tests used:
Assay in all cases: IEDB peptide-MHC binding, purified MHC/competitive/radioactivity; filed as Kd, often an IC50 or EC50 that approximates it; ≥ and ≤ were set here for values at or beyond the usual limits of such assays
HLA-A*33:01 = biological target: HLA-A*33:01
HLA-A*68:01 = biological target: HLA-A*68:01
HLA-A*03:01 = biological target: HLA-A*03:01
HLA-A*31:01 = biological target: HLA-A*31:01
HLA-A*11:01 = biological target: HLA-A*11:01
[1] = source organism: Vaccinia virus WR
[2] = source organism: Lassa virus Josiah
[3] = source organism: Mammarenavirus lassaense
[4] = source organism: Dengue virus 2 Jamaica/1409/1983
[5] = source organism: Dengue virus 3 Martinique/1243/1999
[6] = source organism: Vaccinia virus Copenhagen
[7] = source organism: SARS coronavirus Tor2
[8] = source organism: Dengue virus 3 Sri Lanka/1266/2000
[9] = source organism: Dengue virus 1 Brazil/97-11/1997
[10] = source organism: Dengue virus 4 Philippines/H241/1956

Row | Sequence | Kd (HLA-A*33:01; [1]) [nM] | Kd (HLA-A*68:01; [1]) [nM] | Kd (HLA-A*03:01; [1]) [nM] | Kd (HLA-A*31:01; [1]) [nM] | Kd (HLA-A*11:01; [1]) [nM] | other results
1 | ISDNKKEYK | 10500 | 3420 | 1990 | 1820 | 359 | –
2 | ALMSIISTFH | – | – | – | – | – | Kd (HLA-A*33:01; [2]): 3610 nM; Kd (HLA-A*03:01; [2]): 617 nM
3 | YVEKEENMDK | ≥ 69100 | 3370 | ≥ 70100 | 1270 | 2170 | –
4 | YLGSANMDWR | 3690 | 1070 | 850 | 1350 | 921 | –
5 | VLFSIFYKDY | 3090 | 1160 | 668 | 1200 | 972 | –
6 | SVANGVPVH | – | – | – | – | – | Kd (HLA-A*33:01; [3]): ≥ 77700 nM; Kd (HLA-A*68:01; [3]): 8070 nM; Kd (HLA-A*03:01; [3]): 2270 nM; Kd (HLA-A*31:01; [3]): ≥ 30300 nM; Kd (HLA-A*11:01; [3]): 9780 nM
7 | VSILASSLLK | – | – | – | – | – | Kd (HLA-A*03:01; [4]): 9 nM; Kd (HLA-A*11:01; [4]): 26.2 nM
8 | RVIDLGCGR | – | – | – | – | – | Kd (HLA-A*31:01; [5]): 1.21 nM
9 | RIENEMKINR | 10800 | 803 | 5560 | 183 | 2570 | –
10 | KQMYRKFSR | – | – | – | – | – | Kd (HLA-A*33:01; [6]): 2130 nM; Kd (HLA-A*68:01; [6]): 1210 nM; Kd (HLA-A*03:01; [6]): 209 nM; Kd (HLA-A*31:01; [6]): 4.97 nM; Kd (HLA-A*11:01; [6]): 78.8 nM
11 | DYMPSMKRFR | – | – | – | – | – | Kd (HLA-A*33:01; [4]): 1.97 nM; Kd (HLA-A*31:01; [4]): 43.5 nM
12 | LLSGHNLAK | – | – | – | – | – | Kd (HLA-A*33:01; [7]): ≥ 77700 nM; Kd (HLA-A*68:01; [7]): 6580 nM; Kd (HLA-A*03:01; [7]): 4.61 nM; Kd (HLA-A*31:01; [7]): 6690 nM; Kd (HLA-A*11:01; [7]): 90.9 nM
13 | GIALGLMALK | – | – | – | – | – | Kd (HLA-A*03:01; [5]): 219 nM
14 | ETVKMGAFMY | ≥ 70000 | 61.6 | ≥ 70100 | ≥ 31500 | 1570 | –
15 | HTTAFFNTCK | 14000 | 2.13 | 183 | 113 | 1.46 | –
16 | FFLIVLLIPE | – | – | – | – | – | Kd (HLA-A*33:01; [4]): 327 nM
17 | ETTHHAVSR | – | – | – | – | – | Kd (HLA-A*33:01; [8]): 4.66 nM; Kd (HLA-A*68:01; [8]): 19 nM
18 | MLNILNRRR | – | – | – | – | – | Kd (HLA-A*31:01; [4]): 8.37 nM
19 | RFNVAITRAK | – | – | – | – | – | Kd (HLA-A*33:01; [7]): 7770 nM; Kd (HLA-A*68:01; [7]): 168 nM; Kd (HLA-A*03:01; [7]): 168 nM; Kd (HLA-A*31:01; [7]): 64 nM; Kd (HLA-A*11:01; [7]): 179 nM
20 | LIWAYLSKK | 4940 | 214 | 21.4 | 931 | 101 | –
21 | SACANGWIQY | ≥ 40500 | 2890 | 1200 | ≥ 55000 | 59 | –
22 | ATFIDVHIPK | 43.4 | 3.44 | 9.21 | 915 | 0.269 | –
23 | VSTGSQLAK | – | – | – | – | – | Kd (HLA-A*03:01; [9]): 127 nM; Kd (HLA-A*11:01; [9]): 332 nM
24 | KLDNHDILTY | ≥ 70000 | 16400 | 104 | 9280 | 602 | –

Row | Sequence | Kd (HLA-A*33:01; [1]) [nM] | Kd (HLA-A*68:01; [1]) [nM] | Kd (HLA-A*03:01; [1]) [nM] | Kd (HLA-A*31:01; [1]) [nM] | Kd (HLA-A*11:01; [1]) [nM] | other results
25 | VSTVSQLAK | – | – | – | – | – | Kd (HLA-A*11:01; source organism: Dengue virus 1 Nauru/West Pac/1974): 248 nM
26 | KIDKLTFQIY | 13000 | 1480 | 1270 | 3410 | 17500 | –
27 | STQQNKLVIR | 4470 | 631 | 17900 | 154 | 2240 | –
28 | DTDIFSPENK | 16800 | 42.2 | 5880 | ≥ 22500 | 1680 | –
29 | IINNAVYTK | – | – | – | – | – | Kd (HLA-A*33:01; [7]): 19500 nM; Kd (HLA-A*68:01; [7]): 484 nM; Kd (HLA-A*03:01; [7]): 37.5 nM; Kd (HLA-A*31:01; [7]): 114 nM; Kd (HLA-A*11:01; [7]): 17.1 nM
30 | TTYMDTFFR | 10.6 | 0.0507 | 10.4 | 16.6 | 1.98 | –
31 | RTRDIYISRR | – | – | – | – | – | Kd (HLA-A*33:01; [2]): 725 nM; Kd (HLA-A*68:01; [2]): 1700 nM; Kd (HLA-A*03:01; [2]): 393 nM; Kd (HLA-A*31:01; [2]): 28.1 nM; Kd (HLA-A*11:01; [2]): 4290 nM
32 | AITDNGPMPY | ≥ 49600 | ≥ 23500 | 251 | ≥ 60000 | 340 | –
33 | DMSHLKVALY | 14700 | 854 | 1810 | 768 | 3950 | –
34 | VSTCFKLMLK | – | – | – | – | – | Kd (HLA-A*33:01; [7]): 5700 nM; Kd (HLA-A*68:01; [7]): 472 nM; Kd (HLA-A*03:01; [7]): 112 nM; Kd (HLA-A*31:01; [7]): 806 nM; Kd (HLA-A*11:01; [7]): 15.3 nM
35 | LTAVCMKCFK | 2050 | 3.9 | 29.8 | 38.8 | 7.88 | –
36 | YLRLYIILAR | 117 | 14.8 | 160 | 12.7 | 1470 | –
37 | AVMDIISRK | – | – | – | – | – | Kd (HLA-A*03:01; [10]): 4.94 nM; Kd (HLA-A*11:01; [10]): 107 nM
38 | SQGAGWSLK | – | – | – | – | – | Kd (HLA-A*11:01; [4]): 77.7 nM
39 | MSAAIKDNR | – | – | – | – | – | Kd (HLA-A*68:01; [4]): 14.4 nM; Kd (HLA-A*31:01; [4]): 8.82 nM
40 | GSQLAKRFSK | – | – | – | – | – | Kd (HLA-A*11:01; [9]): 108 nM
41 | YQNKVVRVQR | – | – | – | – | – | Kd (HLA-A*31:01; [4]): ≥ 36700 nM
42 | YVFSGDPLK | – | – | – | – | – | Kd (HLA-A*68:01; [10]): 12.4 nM; Kd (HLA-A*03:01; [10]): 84.4 nM; Kd (HLA-A*11:01; [10]): 159 nM
43 | KSIQKNTIFK | – | – | – | – | – | Kd (HLA-A*11:01; source organism: Mammarenavirus machupoense): 5.35 nM
44 | GSCVYNMMGK | – | – | – | – | – | Kd (HLA-A*03:01; [5]): 104 nM; Kd (HLA-A*11:01; [5]): 25.8 nM
45 | WYFWQKKKQR | – | – | – | – | – | Kd (HLA-A*33:01; [9]): 8.19 nM
46 | RNKRPRLCTR | – | – | – | – | – | Kd (HLA-A*31:01; [8]): 51.9 nM
47 | HMFAGHLKCK | – | – | – | – | – | Kd (HLA-A*03:01; [10]): 7.4 nM
48 | CVTQVLMMR | – | – | – | – | – | Kd (HLA-A*33:01; [4]): 350 nM; Kd (HLA-A*68:01; [4]): 100 nM
